The target in assay [1] is BcM60K (metallopeptidase domain of the Bacteroides caccae peptidase_M60 O-glycopeptidase BcM60K) (Bacteroides caccae).

As for “FRET substrate mNeonGreen-MUC5AC_R2 linker-mScarlet-I, Tn-modified (domain or fragment)”, the KM of cleavage of the FRET substrate (global fit of progress curves) in the assay with BT4244 was 2.9 µM; in assay [1] it was 7.8 µM. In the case of “FRET substrate mNeonGreen-MUC5AC_R2 linker-mScarlet-I, C2-modified (domain or fragment)”, the KM of cleavage of the FRET substrate (global fit of progress curves) in assay [1] is 4.5 µM.

For the substance “FRET substrate mNeonGreen-MUC5AC_R2 linker-mScarlet-I, 6SC1-modified (domain or fragment)”, the KM of cleavage of the FRET substrate (global fit of progress curves) in assay [1] was determined as 2.5 µM. Regarding “FRET substrate mNeonGreen-MUC5AC_R2 linker-mScarlet-I, C1-modified (domain or fragment)”, the KM of cleavage of the FRET substrate (global fit of progress curves) in the assay with BT4244 is 2.9 µM; in assay [1], 6.2 µM.

“FRET substrate mNeonGreen-IgA1 hinge linker-mScarlet-I, Tn-modified (domain or fragment)”: the KM of cleavage of the FRET substrate (global fit of progress curves) with BT4244 amounted to 1 µM. As for “FRET substrate mNeonGreen-MUC5AC_R2 linker-mScarlet-I, 3SC1-modified (domain or fragment)”, the KM of cleavage of the FRET substrate (global fit of progress curves) in assay [1] is 7.6 µM.

Regarding “FRET substrate mNeonGreen-MUC2_R1 linker-mScarlet-I, Tn-modified (domain or fragment)”, in the assay with BT4244, the KM of cleavage of the FRET substrate (global fit of progress curves) is 5.6 µM.

The record behind these values is publication PMC13355702.
